# Results as given in the nanobody polyreactivity screen of Harvey et al. (2022).
# Test: yeast display, Sf9 membrane polyspecificity reagent, FACS + sequencing; frameworks hold sequencing errors
# Method in brief: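 Galactose-induced (36–48 hours) yeast carrying a synthetic nanobody display library were exposed to 10% biotinylated, detergent-solubilized Sf9 membrane reagent at 4 °C for 1 hour. FACS followed streptavidin microbead enrichment, using low and high (top ~1%) gates for expression (anti-HA) and reagent binding (streptavidin). Colony PCR, MiSeq 2 × 250 sequencing and CDR-length filtering followed. Labels for polyreactivity reflect the gate of origin.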
row,Sequence,polyreactivity (PSR sort gate)
1,QVQLQESGGGVQAGGSLRLSCAASGSISAPILMGWYRQAPGKERELVAGIGGGANSYYADSVKGRFTVSRDNAKYTVYLQMNSLKPEATAVYYCAAGDYYWTNFGYWGQGTQVTASS,high polyreactivity
2,QVQLVESGGGLVQAGGSIRLSCAASGLTFRWYAMGWYRQAPGKESELVAAISSGGRTYYADSVKGRFTISRDNAKNTVYLLMNSLKPEDTAVYYSNKRTLDYGFGSYGREYWGQGTQVTVSS,high polyreactivity
3,QVQLVESGGGLVQAGGSLRLSCAASGSIYWLYAMGWYRQAPGKERELVAAITWSGGRTYYADSVKGRFTISRDNAKYNVYLQMNSLKPEDTAVYYCARRQRPGYSNPARGGKYDYWGQGTQVTVSS,low polyreactivity
4,QVQLVESGGGLVQAGGSLRLSCAASGDTFTSYAMGWYRQAPGKERELVAAISRRGGSTYYADSVKGRFTISRDNAKNTVYLQMNSLKPEDTAVYYCAAKSYSYTEFDYWGQGTQVTVSS,high polyreactivity
5,QVQLVESGGGLVQAGGSLRLSCAASGFIFVLNVMGWYRQAPGKEMELVAAITWSGTSTYYADSVKGRFTISRDNAKNTVYLQMNSLKPEDTAVYYCNADWWSDGYDYWGQGSQVTVSS,low polyreactivity
6,QGQLVESGGGLFQAGGSLRLSCDDSGRTFSGYAMGWYRQAPGKEREFVAAITWSGGSTYYADSVKGRFSISRDNAKNTVYLQMNSLKPEDTAVYYCAARDYTRYGYGYWGQGTQVTVSS,high polyreactivity
7,QVQLVESGGGLVQAGGSLRLSCAASGRIFSSYAMGWYRQAPGKERELVAAISSRGGSTYYADSVKGRFTISRDNAKNTVYLQMNSLKPEDTAVYYCARVKYSGVVYKYDYWGQGTQVTVSS,high polyreactivity
8,QVQLVESGGGLVQAGGSLRLSCAYSGRTFYYNTMGWYRQAPGKEREFVATISRIGGSTYYADSVKGRFTISRDNAKNTVYFQMNSLKPEDTAVYYCAKGRSLNGLPPVVYWQLFYYWGQGTLVTVSS,high polyreactivity
9,QVQLVESGGGLVQAGGSLRLSCAASGSIFVYNAMGWYRQAPGKEREWVAGITFIGGSTYYADSVKGRFTISRDNEKNTVYLQMNSLKPEDTAFYYCATDLPGGRYYGPYDYWGQGTQVTVSS,low polyreactivity
10,LVQLEDSGGGLVQGGGSLRLSCAASGRIFSANAMGCYRQATGKERELVASISTGGGRTYYADSVKGRFTISRDNAKNTVYLQMISLKPEDTAVYYCNAILRPFRVRGTYGTYGYDYWGQGTQVTVSS,high polyreactivity
11,QLQLVESGGGLVQAGGSLRLSCAASGFTSDVYAKVSYRQAPGKERELVAEISARGGSTYYADSVKGRFTISRDNAKNTVYLQMNSLKPEDTAVYYCAAEVYVGTIGFYADFFYYPVYYWGQGTQVTVSS,low polyreactivity
12,QVQLVESGGVLVQAGGSLRLSCAASGRTFYLYAMGWSRQAPGKERELVAAISRSGGITYYADSVKGRFTISRDNAKNTVYLQMNSLKPEDTAVYYCAASRAGGYYGKGYSWGQGTQVTVSS,high polyreactivity
13,QVQLVESGGGLVQAGCSLRISCAASGITFGRKTMGWSRQAPGKERELVAAIDSGGNTYADSVKGRFTISRDNAKNTVYLQMNSLKPEDTAVYYCAVDGGEFSSYGYWGQGTQVTVSS,low polyreactivity
14,QVQLVESGGGLVQAGGSLRLSCAASGRIFNPNGMGWYRQAPGKERELVAVITRSGTSTYADSVKGRFTISRDNAKNTVYLQMNSLKPEDTAVYYFATRYRWTPYDYWGQGTQVTVSS,low polyreactivity
15,QVQLVESGGGLVQAGGSLRLSCAASGSSFTGNAMGWYRQAPGKERELVASINGSSGSTYYADSVKGRFTISRDNAKNTVYLEMNSLKPEDTAVYYCNADTYYVEYTAFDYWGQGTQVTVSS,low polyreactivity
16,QVQLVESGGGLVQAGGSLRLICAASGFTFPWYAMGWYRQAPGKERELVATITSGGRTNYADSVKGRFTISRDNAKNTVYLQMNSLKPEDTAVYYCAARASKYSYRTDPWHGDYWGQGTQVTVSS,high polyreactivity
17,QVQLVESGGCLVQAGGSLRLSCAASGSIFSANAMGWYRQAPGKETELVAAITRGGSTNYADSVKGRFTIARDNAKNTVYLQMNSLKPEDTAVYYCNDEPDPYSSGRVRRDYDYWGQGTQVTVSS,low polyreactivity
18,QVQLVESGGGLVQAGGSLRLSCAASGRTFVIYDMGWYRQAPGKERELVAGITRSGGSTYADSVKGRFTISRDNAKNTVYLQMNSLKPEDTAVYYCARRKLYHKSPYDYWGQGTQVTVSS,low polyreactivity
19,QVQLVESGGGLVQAGGSLRLSCAASGFIFGGNAMGWYRQAPGKERELVAAISSGGRTYYADSVKGRFTISRDNAKNTVYLQMNSLKPEDTAVYYCNAYSYHRGRDYWGQGTQVTVSS,low polyreactivity
20,QAQLQESCGSLVQAGGGQRLSCAASGYISVGTVIGWYRQAPSKERELVASIDQGANTNYADSVKGRFTISRDNAKNNVYLKMNSLKPEDTAVYYCATESTYILNYWGQGTQVTVSS,low polyreactivity
21,QVQLVESGGGLVQAGGSLRLSCAASGRIFIRNAMGWYRPAPGKERELVAAITQSGGSTYYADSVKGRFTISRDNAKNTVYLQMNSLKPEDTAVYYCAADGDNPYLHEEDYWGQGTQVTVSS,high polyreactivity
22,QVQLVESGGGLVQAGGSLRLSCAASGFTFGYYAMGWYRQATGKERELVATITGSGVRTYYADSLKGRFTISRDNAKNSVYLQMNSLKPEDTAVYYCNKVFSIPWQGVRFDYWGQGTQVTVSS,high polyreactivity

row,Sequence,polyreactivity (PSR sort gate)
1,QVQLVESRGGLVQAGGSLLLSFAASGRTYPYNAMGWYIQAPRKERELVAGISSGGTTTYADSVKGRFTISRDNAKNTVYLQMNSLKPEDTAVYYCAATVIIFDHSLPGWDDYDYWGQGTQVTVSS,low polyreactivity
2,QVQHVESGGGLLQAGGSLRLSCAASGITFWPYAMGWYRQAPGKERELVAAIRASVGRTYYADSVKGRFTISREYAKNTVYLQMNSLIPVDTAVYYCNAYGRYGKFRVEYDYWGQGTQVTVSS,low polyreactivity
3,QVQLVESGGGLVQAGGSLRLSCAASGYIFRYYAMGWYRQAPGKERELVAAISRSGGNTYYADSVKGRFTISRDNAKNTVYLQMNSLKPEDTAVYYCAVVLSTYSYADYDYWGQGTQVTVSS,high polyreactivity
4,PVQLVESGGGLVHAGGSLRLSCAASGLTFRYYAMGLYRQAPGKERELVASISWSGASTYYADSVKGRFTISRDNAKNTVYLQMNSLKPEDTEVYYCNAGYYGSYDYWGQGTQVTVSS,high polyreactivity
5,QVQLVESGGGLVQAGGSLRLSCAASGYTFGSNAMGWYRQAPGKERELVAAIRYRGDRTYYADSVKGRFTISRDNAKNTVYLQMNSLKPEDTAVYYCAATYGYNTLYRPLRFDYWGQGTQVTVSS,high polyreactivity
6,QVQLVESGGGLVQAGCSLRLSCAASGGTFRSNAMGWYRKAPGKERELVAASTNYADSVKGRFTISRDNAKNTVYLQMNSLKPEDTAVYYCAAGPTDSQTGMDYWGQGTQVTVSS,low polyreactivity
7,QVQLVESGGGLVQAGGSLRLSCAATGSTFIGYAMGWYRQAPGKETELVAAISEIGGSTYYADSVKGRFTISRDNAKNTVYLKMNSLKPEDTAVDYCAATEVYLYFWYGYEYWGQGTQVTVSS,low polyreactivity
8,QVQLVESGGGLVQAGGSLRLSCAASGSIFDRYAMGWYRQAPGKERELVAAISTGGSTNYADSVKGRFTISRDNAKNTVYLQMNSLKPEDTAVYYCAARYLYRMYYWGQGTQVTVSS,low polyreactivity
9,QVQLVESGGGLVQAGGSLPLICAASGSTSVVNAMGWYRQAHGKERELVATIPRVGRTYYADSVKGRFTISRDNAKNTVYLQMNSLKPEDTAVYYCASRLVGRSYKYDYWGQGTQVTVSS,high polyreactivity
10,QVQLVESGGGLVQAGGSLRLTCAASGSTFLYYAMGWSREGPGNERELVATITHGGATNYADSVKGRFTISRDNAKNTVYLELNSLIPDDTAVYYCATDSYHYSYGYASLPEYDYWGHGTQVTVSS,low polyreactivity
11,QVQLVVSGGGLVQAGGSLRLSCAASGSIFGENAMGWYRQAPGKERELVAAITWSGASTYYADSVKGRFTISRDNAKNTVFLKMNSLKPEDTAVYYCNDDRFVRFSTFDYWGQGTQVTVSS,high polyreactivity
12,QVQHVESGGGLVQAGGSLRLSCAASARTFHGYPLGVYRQAAGKETELVARINWSDGRTYYADSVKGRFTMSRDNAKNTVYFQMNSLKPEDTAFYYCAAEKTVSYAPAWYYYWGQGTQVTVSS,low polyreactivity
13,QVQLVESGGGLVQAGGSLRLSCAASGRTIKYYDMGWYRQAPGKERELVADISGRGGSTYYADSVKGRFTISRDNAKNTVYLQMNSLIPEDTAVYYCNAEWFTSSYAHYGMEHWGQGTQVTVSS,low polyreactivity
14,QVQLVESGGGLVQAGGSLRLSCAASGFTFSRYAMVWYRKAPGKDRELVAVISSSGSRTYYADSVKGRFSISRHNAKNTVHLQMNSLQPEDTAVYYGAAKSYTVTAYEYWGQGTQVTVSS,high polyreactivity
15,QVQLVESGGGLVQAGGSLRLSCAASGSTLYWNAMGWYRQAPGKDRELVATINTNGGSTYYADSVKGRFTISRDNAKNTVYLQMNSLKPEDTAVYYCAAQVRQWGYFRYYYWGQGTQVTVSS,high polyreactivity
16,QVQLVESGGGLVQAGGSLRLSCAASGRIFTFNAMGWYRQAPGKERELVAAIRRGGGRTYYADSVKGRFTISRDNAKNTVYLQMNSLKPEDTAVYYCAAPFYRQSLIEYDYWGQGTQVTVSS,high polyreactivity
17,QVQLVESGGGLVQAGGSLRLSCAASGFIFAAYAKGWYRQAPGKERELVAAISGSGGRTYYADSVKGRFTISRDNAKYTVYLQMNSLKPEDTAVYYCGTPPGYPPGSIIWSRFGFWGQGTQVTVSS,high polyreactivity
18,QVQLVESGVGLVQAGGSLRLSCAASGYIFYYYAMGWYRQAPGKESELVAAISSTVSTNYADSVKGRFTISRDNAKNTVYLQMNSLKPEDTAVYYCAAAQRVNHVWYDYWGQGTQVTVSS,low polyreactivity
19,QVQLVESGGGLVQAGGSLRLSCAASGFTFTRYTMGWYRQAPGKERELVAHITSGDSTNYADSVKGRFTISRDNAKNTVYLQMNSLKPEDTAVYYCNAEVKGFFYDYDYWGQGTQVTVSS,low polyreactivity
20,QVQLVESGGGLVQAGGSLPLSCAASGSTLSGYAMGWYRQAPGKEREMVAAITKSGGRTYYADSVKGRFTISRDNAKNTVYLQMNSLKPEDTAVYYCAKAYPGTYREYDYWGQGTQVTVSS,high polyreactivity
21,QVQLVESGGGLVLAGGSLRLSCAASGITFFTYTMGWYRQAPGKERELVARIRWDGGSTYYADSVKGRFTISRDNAKNTVYLQMNSLKPEDTAVYYCAADYPYSTYDYWGQGTQVTVSS,low polyreactivity
